Source: publication PMC7782713, “Structural basis of Naa20 activity towards a canonical NatB substrate” (Communications Biology, 2021)
No end group written: not given here. CoA = coenzyme A

Legend:
[1] = target: Chaetomium thermophilum NatB complex (CtNaa25 with CtNaa20) (Chaetomium thermophilum)
[2] = target: Chaetomium thermophilum Naa20, catalytic subunit of NatB, full length (Chaetomium thermophilum)
[3] = target: Chaetomium thermophilum Naa20 residues 1-166 (predicted GNAT fold) (Chaetomium thermophilum); test: ITC; CtNaa20_(1-166) 25-35 uM in the cell, CtNaa25 250-400 uM in the syringe, 20 °C, buffer G (20 mM HEPES pH 7.5, 200 mM NaCl), single-site binding model, triplicates
CtNaa20 [4] = target: T1, CtNaa20 (Thermochaetoides thermophila, UniProt G0SGG4); test: nanoDSF thermal shift; assay type: binding; conditions: varying ligand excess; buffer G pH 7.5
T1 construct: gene CTHT_0066240; full length, C-terminal His6 (pET21d), E. coli Rosetta II (DE3); residues 2-190 built in the crystal structure

CtNatB = target: T2, CtNatB (Thermochaetoides thermophila, UniProt G0SGG4); test: nanoDSF thermal shift; assay type: binding; conditions: 1/64 protein/ligand; buffer G pH 7.5
T2 construct: gene CTHT_0066240; co-expressed in E. coli Rosetta II (DE3); CtNaa20 with C-terminal His6, CtNaa25 with TEV-cleavable N-terminal His6; with N-alpha-acetyltransferase 25 (N-terminal acetyltransferase B complex auxiliary subunit NAA25)

[5] = target: Chaetomium thermophilum Naa25, auxiliary subunit of NatB, full length (Chaetomium thermophilum); test: SEC-MALS; Superdex 200 10/300 in buffer G (20 mM HEPES pH 7.5, 200 mM NaCl); CtNatB (0.12 mg, co-expressed and purified as a complex), CtNaa25 (0.13 mg) and CtNaa20 (0.1 mg) injected one after the other
[6] = target: T3, Chaetomium thermophilum NatB complex (CtNaa25 with CtNaa20) (Chaetomium thermophilum); test: cell-based or functional assay
T3 chain: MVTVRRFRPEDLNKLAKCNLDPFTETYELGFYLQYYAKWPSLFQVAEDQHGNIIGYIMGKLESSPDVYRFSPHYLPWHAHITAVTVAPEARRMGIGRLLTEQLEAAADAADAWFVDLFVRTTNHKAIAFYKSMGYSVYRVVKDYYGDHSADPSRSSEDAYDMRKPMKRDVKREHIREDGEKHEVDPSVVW

[7] = target: T3, Chaetomium thermophilum NatB complex …; test: enzyme inhibition kinetics (acetylation microplate assay); 500 nM enzyme; mode of inhibition and inhibitor constant of CoA-Ac-MDEL in the acetylation of MDEL; competitive inhibitor; triplicates; conditions: both partners purified
CtNaa20 [8] = target: T4, CtNaa20 (Chaetomium thermophilum, UniProt G0SGG4 1-235); test: EMSA; 5-20 uM protein, 5 uM RNA; 20 mM Tris pH 8, 200 mM NaCl, 10 mM MgCl2, 10 mM KCl, 20% glycerol, 20 C, 30 min; 0.8% agarose gel in 0.5x TB; conditions: protein: recombinant; tags: C-terminal His6
T4 sequence: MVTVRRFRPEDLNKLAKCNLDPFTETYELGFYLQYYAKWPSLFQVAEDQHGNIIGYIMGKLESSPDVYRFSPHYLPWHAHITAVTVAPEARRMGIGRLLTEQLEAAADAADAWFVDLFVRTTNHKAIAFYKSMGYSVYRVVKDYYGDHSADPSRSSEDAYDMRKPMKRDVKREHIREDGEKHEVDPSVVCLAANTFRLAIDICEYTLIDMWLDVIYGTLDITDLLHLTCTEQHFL

Question: Which Km for MDEL in the acetylation assay (constant AcCoA, varying MDEL) [1] does the source give for MDEL peptide (canonical NatB substrate) here?
Answer: The Km for MDEL in the acetylation assay (constant AcCoA, varying MDEL) was 232 µM.

Question: And the Km for MDEL in the acetylation assay (constant AcCoA, varying MDEL) [2]?
Answer: Its Km for MDEL in the acetylation assay (constant AcCoA, varying MDEL) is 4400 µM.

Question: With “Chaetomium thermophilum Naa25, auxiliary subunit of NatB, full length (natural protein)” as the molecule, how does the Kd [3] read?
Answer: Its Kd is 17.8 nM.

Question: What about the dH [3] of the same molecule?
Answer: The dH was 5.4 kcal/mol.

Question: And the stoichiometry N [3]?
Answer: The stoichiometry N was 1.

Question: Which results are given for `CC(=O)SCCNC(=O)CCNC(=O)[C@H](O)C(C)(C)COP(=O)(O)OP(=O)(O)OC[C@H]1O[C@@H](n2cnc3c(N)ncnc32)[C@H](O)[C@@H]1OP(=O)(O)O` [AcCoA]?
Answer: Tm (CtNaa20 [4]): Binding of both ligands to CtNatB and CtNaa20 is indicated by protein stabilization; Tm without to with ligand (CtNatB): 58 to 62 °C

Question: Which stoichiometry N [5] does the source give for “Chaetomium thermophilum Naa20, catalytic subunit of NatB, full length (enzyme)” here?
Answer: Its stoichiometry N is 1.

B1: CoA-Ac-MDEL bisubstrate analog (peptide MDEL joined to coenzyme A through an acetyl bridge) (peptide)
peptide: {CoA-Ac}-MDEL
notes: peptide part of the bisubstrate analog, the canonical NatB substrate MDEL; A tetrapeptide conjugate of 1314 Da; also called MDEL (peptide part M1pD2pE3pL4p); source: synthetic peptide (solid phase), bromo-acetylated and coupled to coenzyme A, purified by reverse phase HPLC
Question: B1 was tested. Which “half-maximum inhibitor concentration (IC50) of the NatB mediated acetylation of MDEL” value [6] did it give?
Answer: The value was 1560 nM.

Question: What about the Ki [7] of the same molecule?
Answer: Its Ki is 410 ± 140 nM.

Question: And the IC50 of the inhibition of acetylation by CtNaa20 alone [2]?
Answer: Its IC50 of the inhibition of acetylation by CtNaa20 alone is 6500 nM.

Question: Does GGGCCUCUAGCCGGGCAACCGGCCGGCGGCUC (structured_RNA) [CtES27 fragment (tip of expansion segment 27)] bind (CtNaa20 [8])?
Answer: Result: no binding
